B1: Hammerhead Ribozyme (parent)
chain: ACCGGAUGUGCUUUCCGGUCUGAUGAGUCCGUGAGGACGAAACAG

This note sets out measurements from the RNAGym collection of RNA variant scans (doi:10.7554/elife.80360).

Variants of B1 are the subject of this series. Kind of series: self-cleavage, relative activity (ratio to wild type); higher = more cleavage; co-transcriptional.
For the variant C29G A41C, the self-cleavage is 0.269.
The same measure for A23C C29A: 0.267.
For U24A U28G, the self-cleavage was determined as 0.694.
Under G18U A26U stands 0.368; under C30A A37G, 0.586; under A6C G35A, 0.568.
The same measure for A6C G35U: 0.744; for C3A U13G: 0.847.
Under G18A U19G stands 0.359; under C11U A42U, 0.377.
Turning to A6C U21C, the self-cleavage was 0.389.
The same measure for A34C C43G: 0.327.
Under U9G A40G stands 0.366; under A6G U19C, 0.486.
The same measure for C11U U21G: 0.563; for G4A: 0.602.
As to C20G U32G, the self-cleavage was 0.28.
Take G10A G39A: the self-cleavage is 0.373.
Under G25C C38G stands 0.304; under G25C C38A, 0.367; under U13G G36A, 0.628.
Under C3U G45A stands 0.468; under C11G G45C, 0.962; under G17A G33U, 0.751.
Consider G10A, for which the self-cleavage turned out to be 1.09.
Under G10C U13G stands 1.24; under C30U G33C, 0.714; under G25C G39U, 0.33.
Under G8C A41U stands 0.388; under C15A U24G, 0.743; under C20U G39A, 0.383.
The same measure for C20U A44U: 0.324; for C3U G8A: 1.25; for G10C U24C: 0.853.
In the case of C16A U19G, the self-cleavage was determined as 0.295.
The same measure for A44C G45C: 1.14; for G39U A40U: 0.307; for G17C U19C: 0.332.
Under A44U G45U stands 1.91.
G5U U32C: the self-cleavage is 0.822.
Turning to C15G C30U, the self-cleavage was found to be 0.722.
Under A6U A34G stands 0.786; under G4C A23C, 0.299.
G31U G39C: the self-cleavage is 0.474.
Under G8U A42C stands 0.422; under C20U C43G, 0.278.
The same measure for C38G A41C: 0.298; for C20G G27U: 0.265; for C2A G10A: 0.934.
The same measure for U14G U28A: 0.796; for U9G A26G: 0.345; for G31U G36A: 0.482.
As for C29G C30U, the self-cleavage was 0.693.
Under A26C A34C stands 0.434.
G31A A41G: the self-cleavage stood at 0.317.
The same measure for C3U C15A: 0.486; for C3A G33U: 0.733; for U12C G25A: 0.352.
Under A23U G39C stands 0.341; under A1C C43A, 0.295; under C3U G39A, 0.309.
Consider U14C C20A, for which the self-cleavage came out at 0.337.
With G33A G45U, the self-cleavage turned out to be 0.955.
On to C15U A40U, for which the self-cleavage worked out at 0.307.
U9C C11G: the self-cleavage was determined as 0.944.
Under C2U U24G stands 1.29; under U9C G31C, 1.
With C15U C20G, the self-cleavage amounted to 0.387.
Under U14C G17U stands 0.561; under C11A A42U, 0.282.
Regarding U13C G39U, the self-cleavage was 0.419.
The same measure for G5U U19C: 0.396; for U9A U19A: 0.291.
Under G5C G10A stands 0.638; under G36C A37G, 0.748.
In the case of G5A G8U, the self-cleavage turned out to be 1.33.
Turning to C3U C16G, the self-cleavage was 0.492.
The same measure for C30A C38A: 0.386.
For U21A A34C, the self-cleavage was 0.439.
The same measure for A41C G45A: 0.39; for C2A: 0.866.
Under U32C G36A stands 0.718; under A1G U24C, 1.6; under U9G A41G, 0.303.
Under U13G C15G stands 0.715; under C11G G27A, 0.839.
With A37U A41G, the self-cleavage was 0.406.
The same measure for G31U G33C: 1.08.
The same measure for C30G: 0.867; for G5A C43A: 0.34; for U9A A42C: 0.32.
The same measure for C11A U13A: 1.46; for C11A U13C: 1.01.
On to A34U G35U, for which the self-cleavage stood at 0.584.
Under G35U G36U stands 0.463; under U21G U28G, 0.564.
Under U13A C20G stands 0.354; under G8U U21G, 0.571.
The same measure for G22C C38G: 0.386.
As to A1U C29G, the self-cleavage is 0.448.
The same measure for U14C G45C: 0.441; for U12G G45U: 0.716; for C11G U28C: 1.13.
Consider C29U C30A, for which the self-cleavage was found to be 0.609.
Under U12C A26U stands 0.854; under A6C G36C, 0.326; under U12A A42G, 0.252.
The same measure for A34G A44U: 0.526.
Under C15A U19A stands 0.365.
C11A A26G: the self-cleavage turned out to be 0.28.
The same measure for U7C U32G: 0.626; for G10U U13C: 1.11; for G39C A42U: 0.39.
Under G39C A42C stands 0.355.
Under G25C U32A stands 0.298; under C2G A37G, 0.351.
Regarding G10A C30A, the self-cleavage was determined as 1.01.
Take U7G U21A: the self-cleavage was found to be 0.345.
The same measure for U7G U21C: 0.641; for C2A U12C: 0.5; for U7C G22A: 0.387.
The same measure for C15A G25U: 0.339; for U7A A23G: 0.308; for U13A U21A: 0.707.
The same measure for G8A G36U: 0.5; for A6G G22U: 0.28; for G10C G33A: 1.14.
On to C20A U21A, for which the self-cleavage was found to be 0.228.
Regarding U24G C38G, the self-cleavage is 0.865.
Under A1C G4U stands 0.353.
Under C30G G39A stands 0.26; under C30U C38A, 0.695.
Under G8U G27C stands 0.794.
With A41G C43U, the self-cleavage is 0.366.
For A6U G35C, the self-cleavage stood at 0.473.
As for A37U C43G, the self-cleavage is 0.271.
With U7C G31A, the self-cleavage worked out at 1.12.
The same measure for U9G C43U: 0.339; for U9G C43A: 0.271; for U13G A37C: 0.96.
Under U12A stands 1.05; under C15G G39C, 0.275.
In the case of C3G G18C, the self-cleavage was determined as 0.335.
The same measure for C11U G39C: 0.389.
Under U13A A44U stands 0.749; under U14A A34C, 1.05; under U19A A44G, 0.512.
In the case of G22C A23G, the self-cleavage amounted to 0.312.
G33A C43G: the self-cleavage amounted to 0.371.
The same measure for G18C U32C: 0.446; for A6U G8A: 0.807.
In the case of U12A G22A, the self-cleavage turned out to be 0.261.
Under G4C A37U stands 0.294; under C3U G22C, 0.341.
Under A1U G22C stands 0.22; under U9C G27C, 0.774.
Under U7C U13C stands 1.4.
Turning to U14G A23G, the self-cleavage was 0.248.
The same measure for G36A C43G: 0.274; for C15A C16G: 0.521; for U12G G27U: 0.411.
The same measure for U9A C15A: 0.699; for U7G G36C: 0.557; for A23C A26C: 0.376.
In the case of U13G U21A, the self-cleavage turned out to be 0.507.
The same measure for U24A G36U: 0.618.
The same measure for A6C G10C: 0.515.
